# Test results: US9120862
# Columns and labels:
# [1] = molecular target: PIVKA-II antigen (Protein Induced by Vitamin K Absence II; decarboxylated prothrombin) (human) (UniProt P00734); experiment: … sandwich chemiluminescent immunoassay, 3C10 microparticles capture, conjugate detects; calibrator B, 20 mAU/mL PIVKA; mean of 5
# [2] = molecular target: PIVKA-II antigen (Protein Induced by Vitamin K Absence II; decarboxylated prothrombin) (human) (UniProt P00734); experiment: … sandwich chemiluminescent immunoassay, 3C10 microparticles capture, conjugate detects; calibrator C, 100 mAU/mL PIVKA; mean of 5
# [3] = molecular target: PIVKA-II antigen (Protein Induced by Vitamin K Absence II; decarboxylated prothrombin) (human) (UniProt P00734); experiment: … sandwich chemiluminescent immunoassay, 3C10 microparticles capture, conjugate detects; calibrator F, 30000 mAU/mL PIVKA; mean of 5
# [4] = molecular target: PIVKA-II antigen (Protein Induced by Vitamin K Absence II; decarboxylated prothrombin) (human) (UniProt P00734); experiment: … sandwich chemiluminescent immunoassay, 3C10 microparticles capture, conjugate detects; calibrator A, 0 mAU/mL PIVKA (blank); mean of 5
# [5] = molecular target: PIVKA-II antigen (Protein Induced by Vitamin K Absence II; decarboxylated prothrombin) (human) (UniProt P00734); experiment: … sandwich chemiluminescent immunoassay, 3C10 microparticles capture, conjugate detects; calibrator D, 750 mAU/mL PIVKA; mean of 5
# [6] = molecular target: PIVKA-II antigen (Protein Induced by Vitamin K Absence II; decarboxylated prothrombin) (human) (UniProt P00734); experiment: … sandwich chemiluminescent immunoassay, 3C10 microparticles capture, conjugate detects; calibrator E, 7500 mAU/mL PIVKA; mean of 5
substance,measurement,setting,value
"control conjugate that reacts to human prothrombin (Abbott Japan, Tokyo, Japan) (antibody)",RLU,[1],683 RLU
same,RLU,[2],2600 RLU
same,RLU,[3],871000 RLU
same,RLU,[4],190 RLU
same,RLU,[5],19000 RLU
same,RLU,[6],204000 RLU
